Results: publication doi:10.1101/2021.12.14.472590 (bioRxiv, 2021)

Molecular target: human β-actin (recombinant G-actin) (human, UniProt P60709 1-375)
Assay: NMR titration

B1: ADAP1-381 (N-terminal intrinsically disordered fragment of ADAP) (domain or fragment)
chain: MAKYNTGGNPTEDVSVNSRPFRVTGPNSSSGIQARKNLFNNQGNASPPAGPSNVPKFGSPKPPVAVKPSSEEKPDKEPKPPFLKPTGAGQRFGTPASLTTRDPEAKVGFLKPVGPKPINLPKEDSKPTFPWPPGNKPSLHSVNQDHDLKPLGPKSGPTPPTSENEQKQAFPKLTGVKGKFMSASQDLEPKPLFPKPAFGQKPPLSTENSHEDESPMKNVSSSKGSPAPLGVRSKSGPLKPAREDSENKDHAGEISSLPFPGVVLKPAASRGGPGLSKNGEEKKEDRKIDAAKNTFQSKINQEELASGTPPARFPKAPSKLTVGGPWGQSQEKEKGDKNSATPKQKPLPPLFTLGPPPPKPNRPPNVDLTKFHKTSSGNSTS
  binding result: binds
